Experimental data reported in the DeepSol protein solubility set.

Assay: soluble on expression in E. coli; label from the status in PepcDB or PDB records

| Sequence | soluble on expression in E. coli |
| --- | --- |
| MSVQNGFTAKIIRFVPHFVALRLSWTHNDLKAEGLEQFVEECLPAIRENNPQVKYFLQRSYTTCDPFVVGEYSWLRHRKKRVNWKSKEQVLSMIEEMSIGGDYREGYKRGVNRRLPRGQELWDTETMGHDVFHVTSKWKADIPEEDELPITAKTHPNFTYRKY | not soluble |
| GSHMLEVLTQKHKPAESQQQAAETEGSCNKKDQNECKSPCKWHNDAENKKCTLDKEEAKKVADETAKDGKTGNTNTTGSS | soluble |
| MSYKSSKYNLFIERKREVISFNTLRNIIAKCDIETKEILENETFNKLPPDLLNKMISEGIIVNKELNELNIIKLTRMMYYGQLLHYLSIGLTLVMTYSCNLRCPYCYEGDIKSKGGLLTREKIETILTFASAHAQGDKKPTISVSFYGGEPLLNWKGCEYTLQRLEEMKENKEIRDYSAGFVTNGTLINEDIVDAINNYNVYSMQITLDGPKEIHDKRRIKSNGEGTFDQIIENIKLLNRRIANKNFHLALRINVDKTNYKKIPELLDFLKDEGLGGIPISYGIVRGNLPYCSSNCGVYFSGSDLQKYLPYLWKEAYRRGFEVWTRPNLRFIYCGYDNPFGYVIDPELKVYPCWEMVGIEDYQIGEIQKDGTMKITPFYYDAKSRDPTEYDECKNCKLLPVCMGGCAMESIRKNGHPNGPGCDINKYIWKEGLKFYLMKKYPNLFSKETLIENLGRVPNRDEQTKNRIMFNT | not soluble |
| MSLEAAPAGSGPLRRTFLVPEIKSLDQYDFSRAKAAASLAWVLRAAFGGAEHVPPELWEPFYTDQYAQEHVKPPVTRLLLSAELYCRAWRQALPQLEPSPSPSALLALLARRGTVPSLPEHPVREADLKHQPILMGAHLAVIDALMVAFSFEWTKTLPGPLALSSLEHKLLFWVDTTVRRLQEKTEQEAAQRASPAAPLDGASPAQPSIRYRKDRAIARRAPCFPNVTTLQDLASGAALAATIHCYCPQLLRLEEVCLKDPMSVADSLYNLQLVQDFCASHLPRGCPLSLEDLLYVPPPLKVNLVVLLAEMYMCFEVLKPDFVQAKDLPDGHAVSPRNTETVPSQNNSGSSSSPSRLPGSRERDWENGSNASSPASVPEYTGPRLYKEPSAKSNKFIIHNALSHCCLAGKVNEPQKNRILEEIEKSKANHFLILFRDSSCQFRALYTLSGETEELSRLAGYGPRTVTPAMVEGIYKYNSDRKRFTQIPAKTMSMSVDAFTIQGHLWQSKKPTTPKKGGGTPKEGHHHHHH | soluble |
| MGSDKIHHHHHHMKKHSPIGCISKAGLFSKLPHKMLEKIAPISTHQEYFEKGSFIRQPGDGKNGMMFVDKGSAKIYNLNRDGKETVLGVLNKGDYDGQQNLFQDDSHENFIQALQDTYICSISRADFQRLLKDTPDLTLNLLNNFGEKLVAIETNSVRRNSMNAKDRLMDYLVEQSQKNGATKFTLPLKKKDLASYLGTSPETLSRQLKSLEKEGKIKVNRREITIVKD | not soluble |
| MENSEKLANSKEVIAYIAERFPKCFILEGEAKPLKIGIFQDLAERLSDDPKVSKTQLRAGLRQYTSSWRYLHGVKPGASRVDLDGNPCGELEEEHIEHAKATLEESKAKVATRRKEQAKKAREEAKAKKTARAATPPKRRPQPAAKKVEQPVETRALNADEITVGNNVSVNMGKGNMPATIVEINKDDVRIRLSNGLQMVVKAENLRS | not soluble |
| MKNVTRILTLSNGYHLWSHTSNLGGRTKLLCLHGGPGDTHEVFERFGPELADLDIEVTMYDQLGSWYSDTPNWDDDAIRQQYLTEDYYLSEVDEVRQQLGYKHCYLAGHSWGGMLAMTYAADHQDQLDGLIIISMIDNIADYLKRMHAIRTAEFSPAENAFMLAIEKRQQWNNPHYRQLITHLYHQYINRCHPSMMQHQLDIQAKPVYNHFQGDNEFVVYGVLDDWDFSDTLATIQVPTLLMFADHETMPLATAERMQQRMPNAKLVVTPDSGHNHMVDNPAVFFTYLRNYFSDQLGR | not soluble |
| MTIAILSTGDEIIHGDTLNTNAHYIAHALCSEGLPLGLQVACSDKENEIIDSLNFLTQHHDILILIGGLGPTKDDITRFALAKFTKEPLLQHADALDHIEKKANIAKISLNQGNLQQCLFPANARLFPNPYGTAMGCSYSWKGKVFILLPGPPRECLPMFNQDVLPLLLQTSRHSNK | not soluble |
| MGSDKIHHHHHHMIKLIVSDIDGTLVDSQGQLLPATITGVQAAVARGAQMVLASARSPKGMFGIAQQLGINSTMIAYNGALTATTDVNDRLTVFEEQAVDPKLAQAVQTVVAHDWPAASISIYSNNNWLVATNGPWEQQEATGIGYAPHVTDLGTWLQRMPTPVHKMMIMADPDIIQAIEQRLSRNEFSGLAVYRSKETYLEIVAAGVTKAAALMKLLQDDQVTPAETLAFGDNFNDVAMLQTAGIGVAMANAPQPVKEAANIVTTDNNHNGIQLTLAQYFADVTR | not soluble |
| MSLATTSTEPPTELSGEITMWHSFTQGPRLESIQKSADAFMQKHPKTKIKIETFSWNDFYTKWTTGLANGNVPDISTALPNQVMEMVNSDALVPLNDSIKRIGQDKFNETALNEAKIGDDYYSVPLYSHAQVMWVRTDLLKEHNIEVPKTWDQLYEASKKLKEAGVYGLSVPFGTNDLMATRFLNFYVRSGGGSLLTKDLKADLTSQLAQDGIKYWVKLYKEISPQDSLNFNVLQQATLFYQGKTAFDFNSGFHIGGINANSPQLIDSIDAYPIPKIKESDKDQGIETSNIPMVVWKNSKHPEVAKAFLEALYNEEDYVKFLDSTPVGMLPTIKGISDSAAYKENETRKKFKHAEEVITEAVKKGTAIGYENGPSVQAGMLTNQHIIEQMFQDIITNGTDPMKAAKEAEKQLNDLFEAVQEGHHHHHH | soluble |
| MAFLRSMWGVLSALGRSGAELCTGCGSRLRSPFSFVYLPRWFSSVLASCPKKPVSSYLRFSKEQLPIFKAQNPDAKTTELIRRIAQRWRELPDSKKKIYQDAYRAEWQVYKEEISRFKEQLTPSQIMSLEKEIMDKHLKRKAMTKKKELTLLGKPKRPRSAYNVYVAERFQEAKGDSPQEKLKTVKENWKNLSDSEKELYIQHAKEDETRYHNEMKSWEEQMIEVGRKDLLRRTIKKQRKYGAEEC | soluble |
| MTEALELGDCLLSGAVGLVVKRRSGIAEDVARLVVKELVESGVEVLVDETVDYPSLSGFPRFSISRDPPGRVVVVGGDGTLLRTFLRLGERESPLFMTIKAGKKGFLLDVERYEAVERLRDFLEGRFREVVYPRYRVYLEGEARACMFNDTAVTANNAKMARVHVFVDGDLAMNIDGDGVVVSTTAGSTAYSLSGGGPIIDPRLDVIVLTPLNPVQLFLRSIVVPSGSRVTVEASVYSNPLVVNIDGQYVYELEPGGIVDIERCGSGVRIARFRWWEDYYERLYTRLLAYWAAALEHHHHHH | not soluble |
| MSLTAYMDHKNLANEVIDDARAREITDGVHRVLDRIAAAEEQAGREAGSVRLLAATKTRDIGEIMAAIDAGVRMIGENRPQEVTAKAEGLARRCAERGFSLGVAGAAPDAAAEHIPFHLIGQLQSNKIGKVLPVVDTIESVDSIDLAEKISRRAVARGITVGVLLEVNESGEESKSGCDPAHAIRIAQKIGTLDGIELQGLMTIGAHVHDETVIRRGFSHLRKTRDLILASGEPGTDRCRELSMGMTGDMELAIAEGSTIVRVGTAIFGERAFIEGHHHHHH | soluble |
| MSLTDHGFSFCAHAEQYAIIGSLSQLETSDNRDCDIRRPALNRCMAEKGTLRPEAAQIFQRLEALGLKQRELAQALGIEENKISKVRAGERQFKGAELLAAYEWLDQREAEAHMPRLSRVAAVGQQVIPATPVEGEVVQIQKLDLSLSMGPGTLIDGYVESELVSFDLGFVRLFTRAASDHLRLVTGIGDSMEPTLKWGDLILIDTTDRMLSKQDGIYWINLYGAAGIKRLRAIGPRTILVKSDNPGVDDQEVEAEDLRIEGRAIWATRGLEGHHHHHH | soluble |
| MFTIRKATSDDCKLINELANQVFPATYKEILSTEQLDYMMEWMYAPENIRKQMEEEGHVYFIAYQGDEPCGYVSVQPQDADVFHLQKIYVLPGFQGAHLGSKLFDHAVQYIKEIHPSPCLMELNVNRNNKALHFYEHKGMKKLREGDFPIGNGYYMNDYIMGLEL | not soluble |
| MSLGKFTAVILDFETTGLSPGYGDRAIEIGAVLVRNNRIVDRFQSLMNPGKRVSGFIEEYTGITNEMLAKAPPAEQVMERFASFIAGHNLVAHNASFDRRFLDAELSRIGRRRTGDFACSMLAARRIYTNAPNHRLETLVSHLSLQTDGVFHRALADAEMTAQLWTAMIGELKETYRLRQVTFELMHSLGGVAKKAVPAYLERVAAGREGHHHHHH | not soluble |
